The record followed here is PMC3107238.

For this test, the target named is plasma proteins (rat (endogenous in serum)). Description: SEC.

Take “L56A mutant of sTEM8 (from UniProt Q9H6X2 38-220) (domain or fragment)”: the percent plasma protein binding is > 90%.
In the case of “soluble vWA domain of tumor endothelium marker-8 (sTEM8) (from UniProt Q9H6X2 38-220) (domain or fragment)”, the percent plasma protein binding is > 90%.
